Data set [1] deals with T1, PTBP1 (UniProt P26599 1-557). Briefly: EMSA; 1.5 mM Mg2+, 100 mM KCl, pH 8.0; EMSA: 20 mM HEPES pH 8.0, 100 mM KCl, 1.5 mM MgCl2, 10% glycerol, 0.5 mM DTT, native 10% TBE gel; NMR: PTBP1 in 10 mM sodium phosphate pH 6.5, 20 mM NaCl; Nu in 20 mM sodium phosphate pH 6.0, 50 mM NaCl; 298 K. Particulars: protein: recombinant; tags: pET28a; label: 5'-32P (EMSA); none (NMR); single-stranded.

For data set [2], the target named is T1, PTBP1. Briefly: NMR diffusion (REDIFINE); 1:1 soluble complex; koff 1.41 s-1, kon 3e6 M-1 s-1; 10 mM phosphate pH 6.5, 20 mM NaCl; EMSA: 20 mM HEPES pH 8.0, 100 mM KCl, 1.5 mM MgCl2, 10% glycerol, 0.5 mM DTT, native 10% TBE gel; NMR: PTBP1 in 10 mM sodium phosphate pH 6.5, 20 mM NaCl; Nu in 20 mM sodium phosphate pH 6.0, 50 mM NaCl; 298 K. To be noted: protein: recombinant; tags: pET28a; label: 5'-32P (EMSA); none (NMR); single-stranded. On the technique in general: In EMSA bound probe runs differently from free probe, usually more slowly.

The next data set concerns the target Nu(247-419) (SARS-CoV-2, UniProt P0DTC9 247-419). Briefly: NMR (1D, DOSY). Particulars: protein: recombinant; chain copies: 2; label: none (NMR); 3' Cy5 (microscopy); hairpin.

By Kd is commonly meant a measure of binding affinity in units of concentration.

Take GGGAGAUCUCUAAAAAUCUCUAAAAAUCUCUAAAAA (ssRNA) [3xUCUCU RNA]: the Kd was determined as 490 ± 20 nM with PTBP1 [1] and 500 ± 100 nM with PTBP1 [2].
In the case of GGUUCACCGAGGCCACGCGGAGUACGAUCGAGUGUACAGUGAACC (structured_RNA) [s2m RNA], in the data set with Nu(247-419), the binding result is given as “binds”.

The record behind these values is article PMC12089286, “LLPS REDIFINE allows the biophysical characterization of multicomponent condensates without tags or labels”.
